Data taken from article PMC13090976 (Cell Stress & Chaperones, 2026).

B1: human CHIP-TPR (residues 21-154) [human] / biotin-… [modified: biotin, printed before the first residue (biotin-…); biotin, printed before the first residue (biotin-…)] [human] (parent)
chain 1: EKSPSAQELKEQGNRLFVGRKYPEAAACYGRAITRNPLVAVYYTNRALCYLKMQQHEQALADCRRALELDGQSVKAHFFLGQCQLEMESYDEAIANLQRAYSLAKEQRLNFGDDIPSALRIAKKKRWNSIEERR
chain 2: GSGSGPTIEEVD

Variants of: B1
Experiment: biolayer interferometry
Conditions: with biotin-… [modified: biotin, read off a plot

Row | Variant | koff | kon
1 | chain 1 G112N | 0.0031 s⁻¹ | 5800 M⁻¹ s⁻¹
